# Measurements taken from patent US20090298769.
# What was measured:
# [1] = system: control peptide DTANNPLF KEATSTFT-COOH
# [2] = system: control peptide KEATSTFTNIT FRGTCOOH
# [3] = system: recombinant β3 integrin cytoplasmic tail-GST fusion protein
# [4] = system: β3 integrin cytoplasmic peptide specific for tyrosine-747 (DTANNPLYpKEATSTFT-COOH)
# [5] = system: β3 integrin cytoplasmic peptide specific for tyrosine-759 (KEATSTFTNITYpRGT-COOH)
Substance,"[γ-32P] ATP incorporation, in vitro kinase assay (control peptide, lower incorporation) [1]","[γ-32P] ATP incorporation, in vitro kinase assay (control peptide, lower incorporation) [2]","[γ-32P] ATP incorporation, in vitro kinase assay [3]","[γ-32P] ATP incorporation, in vitro kinase assay [4]","[γ-32P] ATP incorporation, in vitro kinase assay [5]"
c-Src of HUVEC (endogenous),a dramatic increase in [γ-^32P] ATP incorporation was observed as compared to control peptides devoid of tyrosine motifs,a dramatic increase in [γ-^32P] ATP incorporation was observed as compared to control peptides devoid of tyrosine motifs,the immunoprecipitated c-Src can phosphorylate β3 integrin cytoplasmic domain,"In the presence of Tyr-747/Tyr-759 β3 integrin cytoplasmic peptide, a dramatic increase in [γ-^32P] ATP incorporation was observed as compared to control peptides devoid of tyrosine motifs","In the presence of Tyr-747/Tyr-759 β3 integrin cytoplasmic peptide, a dramatic increase in [γ-^32P] ATP incorporation was observed as compared to control peptides devoid of tyrosine motifs"
"purified, recombinant full-length c-Src",,,Recombinant purified c-Src also phosphorylated the β3 integrin whereas no phosphorylation was observed without the substrate,,
